T1: NHERF3_3, Q5T2W1
T1 sequence (Q5T2W1 238-333, limits assumed, looked up): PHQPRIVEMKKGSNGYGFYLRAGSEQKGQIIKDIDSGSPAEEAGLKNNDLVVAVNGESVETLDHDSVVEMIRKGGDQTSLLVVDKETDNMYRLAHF

T2: RHPN1, Q8TCX5
T2 sequence (Q8TCX5 508-602, limits assumed, looked up): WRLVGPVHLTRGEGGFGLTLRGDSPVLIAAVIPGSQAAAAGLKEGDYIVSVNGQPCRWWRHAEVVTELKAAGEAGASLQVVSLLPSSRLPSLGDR

T3: LIN7C, Q9NUP9
T3 sequence (Q9NUP9 88-185, limits assumed, looked up): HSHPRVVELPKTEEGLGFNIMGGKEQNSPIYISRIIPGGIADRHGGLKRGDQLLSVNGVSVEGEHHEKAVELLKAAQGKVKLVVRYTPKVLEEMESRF

T4: TJP3_3, O95049
T4 sequence (O95049 375-456, limits assumed, looked up): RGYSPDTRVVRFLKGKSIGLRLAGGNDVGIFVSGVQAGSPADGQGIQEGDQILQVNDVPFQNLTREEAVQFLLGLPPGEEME

T5: RADIL, Q96JH8
T5 sequence (Q96JH8 971-1071, limits assumed, looked up): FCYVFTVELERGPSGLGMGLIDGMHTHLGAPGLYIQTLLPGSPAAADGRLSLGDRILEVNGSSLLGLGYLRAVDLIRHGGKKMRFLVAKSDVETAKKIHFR

T6: GRIP1_3, Q9Y3R0
T6 sequence (Q9Y3R0 247-346, limits assumed, looked up): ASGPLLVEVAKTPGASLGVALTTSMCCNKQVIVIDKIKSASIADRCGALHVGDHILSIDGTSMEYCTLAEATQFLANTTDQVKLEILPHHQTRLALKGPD

T7: APBA2_1, Q99767
T7 sequence (Q99767 563-664, limits assumed, looked up): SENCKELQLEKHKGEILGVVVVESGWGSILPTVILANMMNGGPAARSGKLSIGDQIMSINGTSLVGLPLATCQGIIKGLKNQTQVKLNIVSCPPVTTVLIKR

T8: SNTG1, Q9NSN8
T8 sequence (Q9NSN8 52-150, limits assumed, looked up): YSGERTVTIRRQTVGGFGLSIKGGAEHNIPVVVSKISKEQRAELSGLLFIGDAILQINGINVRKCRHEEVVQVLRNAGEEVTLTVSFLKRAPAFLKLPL

T9: NHERF3_1, Q5T2W1
T9 sequence (Q5T2W1 4-100, limits assumed, looked up): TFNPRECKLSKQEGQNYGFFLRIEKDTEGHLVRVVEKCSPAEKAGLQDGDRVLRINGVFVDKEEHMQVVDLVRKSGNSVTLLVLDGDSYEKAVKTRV

T10: ARHGEF11, O15085
T10 sequence (O15085 42-136, limits assumed, looked up): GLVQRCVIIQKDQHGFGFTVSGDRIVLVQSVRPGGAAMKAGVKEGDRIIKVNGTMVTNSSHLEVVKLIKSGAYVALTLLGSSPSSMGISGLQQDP

T11: SYNJ2BP, P57105
T11 sequence (P57105 8-110, limits assumed, looked up): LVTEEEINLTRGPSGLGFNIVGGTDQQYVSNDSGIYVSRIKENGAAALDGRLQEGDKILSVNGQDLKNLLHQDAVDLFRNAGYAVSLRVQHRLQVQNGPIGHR

T12: GRIP1_2, Q9Y3R0
T12 sequence (Q9Y3R0 145-248, limits assumed, looked up): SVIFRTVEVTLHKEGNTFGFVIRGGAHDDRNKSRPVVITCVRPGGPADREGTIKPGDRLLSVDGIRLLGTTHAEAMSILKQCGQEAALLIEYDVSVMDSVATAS


Tests used:
Test in all cases: holdup assay
Set-up in all cases: key: below the threshold = too weak to quantify, mostly under pKd 3.1 to 4
Conditions in all cases: plain residues with an end cap or a label only (N-terminal biotin on a linker: ado-ado)
PDZRN4_1, Q6ZMN7 = target: PDZRN4_1, Q6ZMN7
Chain of PDZRN4_1, Q6ZMN7 (Q6ZMN7 213-318): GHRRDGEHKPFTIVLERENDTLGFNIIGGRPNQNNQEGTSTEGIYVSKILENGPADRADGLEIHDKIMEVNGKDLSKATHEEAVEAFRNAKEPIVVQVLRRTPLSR

NHERF3_3, Q5T2W1 = target: T1, NHERF3_3, Q5T2W1
RHPN1, Q8TCX5 = target: T2, RHPN1, Q8TCX5
LIN7C, Q9NUP9 = target: T3, LIN7C, Q9NUP9
TJP3_3, O95049 = target: T4, TJP3_3, O95049
HTRA1, Q92743 = target: HTRA1, Q92743
Chain of HTRA1, Q92743 (Q92743 360-477): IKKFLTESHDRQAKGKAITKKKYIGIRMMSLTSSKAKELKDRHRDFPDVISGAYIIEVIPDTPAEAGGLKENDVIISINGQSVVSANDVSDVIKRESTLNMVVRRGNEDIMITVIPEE

RADIL, Q96JH8 = target: T5, RADIL, Q96JH8
DLG2_2, Q15700 = target: DLG2_2, Q15700
GRIP1_3, Q9Y3R0 = target: T6, GRIP1_3, Q9Y3R0
CASK, O14936 = target: CASK, O14936
Chain of CASK, O14936 (O14936 487-570): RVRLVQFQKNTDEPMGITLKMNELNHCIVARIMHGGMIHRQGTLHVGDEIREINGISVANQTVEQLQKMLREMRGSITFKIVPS

Inadl_2, Q8NI35 = target: Inadl_2, Q8NI35
Chain of Inadl_2, Q8NI35 (Q8NI35 238-335): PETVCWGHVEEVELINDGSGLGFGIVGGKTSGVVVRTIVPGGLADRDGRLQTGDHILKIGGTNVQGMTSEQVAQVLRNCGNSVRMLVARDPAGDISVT

IL16_4, Q14005 = target: IL16_4, Q14005
Chain of IL16_4, Q14005 (Q14005 1229-1329): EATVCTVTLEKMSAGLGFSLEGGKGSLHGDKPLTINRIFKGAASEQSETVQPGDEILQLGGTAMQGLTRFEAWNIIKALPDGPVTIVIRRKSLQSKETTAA

APBA2_1, Q99767 = target: T7, APBA2_1, Q99767
Inadl_10, Q8NI35 = target: Inadl_10, Q8NI35
Chain of Inadl_10, Q8NI35 (Q8NI35 1673-1763): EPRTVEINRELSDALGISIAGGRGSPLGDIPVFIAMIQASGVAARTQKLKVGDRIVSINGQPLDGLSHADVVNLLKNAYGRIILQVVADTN

TJP1_2, Q07157 = target: TJP1_2, Q07157
Chain of TJP1_2, Q07157 (Q07157 181-274): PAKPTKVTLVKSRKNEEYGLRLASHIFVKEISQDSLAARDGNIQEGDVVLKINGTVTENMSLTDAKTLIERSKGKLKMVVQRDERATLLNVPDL

ARHGEF12, Q9NZN5-2 = target: ARHGEF12, Q9NZN5-2
Chain of ARHGEF12, Q9NZN5-2 (Q9NZN5 other isoform, or with tags, fused parts or gaps): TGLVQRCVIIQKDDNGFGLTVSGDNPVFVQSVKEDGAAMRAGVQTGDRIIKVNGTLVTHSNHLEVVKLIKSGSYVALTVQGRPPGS

SNTG1, Q9NSN8 = target: T8, SNTG1, Q9NSN8
NHERF3_1, Q5T2W1 = target: T9, NHERF3_1, Q5T2W1
GRID2IP_1, A4D2P6 = target: GRID2IP_1, A4D2P6
Chain of GRID2IP_1, A4D2P6 (A4D2P6 1-87): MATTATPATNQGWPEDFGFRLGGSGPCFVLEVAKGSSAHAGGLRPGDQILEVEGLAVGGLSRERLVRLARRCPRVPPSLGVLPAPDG

LNX1_2, Q8TBB1 = target: LNX1_2, Q8TBB1
Chain of LNX1_2, Q8TBB1 (Q8TBB1 371-470): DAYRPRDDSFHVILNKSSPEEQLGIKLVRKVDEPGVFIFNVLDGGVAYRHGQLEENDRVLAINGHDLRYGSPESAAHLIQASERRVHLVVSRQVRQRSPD

DLG2_3, Q15700 = target: DLG2_3, Q15700
ARHGEF11, O15085 = target: T10, ARHGEF11, O15085
SYNJ2BP, P57105 = target: T11, SYNJ2BP, P57105
GRIP2_6, Q9C0E4 = target: GRIP2_6, Q9C0E4
Chain of GRIP2_6, Q9C0E4 (Q9C0E4 648-740): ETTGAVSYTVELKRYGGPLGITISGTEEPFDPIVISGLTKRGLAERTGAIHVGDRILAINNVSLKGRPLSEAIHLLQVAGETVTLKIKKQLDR

GRIP1_2, Q9Y3R0 = target: T12, GRIP1_2, Q9Y3R0
MAGI1_1, Q96QZ7 = target: MAGI1_1, Q96QZ7
Chain of MAGI1_1, Q96QZ7 (Q96QZ7 1-106): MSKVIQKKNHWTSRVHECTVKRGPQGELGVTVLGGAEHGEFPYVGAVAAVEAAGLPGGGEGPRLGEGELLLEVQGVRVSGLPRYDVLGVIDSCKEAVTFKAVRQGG

| Binder | pKd (PDZRN4_1, Q6ZMN7) | pKd (NHERF3_3, Q5T2W1) | pKd (RHPN1, Q8TCX5) | pKd (LIN7C, Q9NUP9) | pKd (TJP3_3, O95049) | pKd (HTRA1, Q92743) | pKd (RADIL, Q96JH8) | pKd (DLG2_2, Q15700) | pKd (GRIP1_3, Q9Y3R0) | pKd (CASK, O14936) | pKd (Inadl_2, Q8NI35) | pKd (IL16_4, Q14005) | pKd (APBA2_1, Q99767) | pKd (Inadl_10, Q8NI35) | pKd (TJP1_2, Q07157) | pKd (ARHGEF12, Q9NZN5-2) | pKd (SNTG1, Q9NSN8) | pKd (NHERF3_1, Q5T2W1) | pKd (GRID2IP_1, A4D2P6) | pKd (LNX1_2, Q8TBB1) | also measured |
| --- | --- | --- | --- | --- | --- | --- | --- | --- | --- | --- | --- | --- | --- | --- | --- | --- | --- | --- | --- | --- | --- |
| RELVMRVTTV [MARCHF4, Q9P2E8] | 3.88 | below the threshold | 4.06 | 4.3 | below the threshold | 4.96 | 4.74 | 5.2 | below the threshold | below the threshold | below the threshold | below the threshold | below the threshold | below the threshold | below the threshold | 4.86 | 4.95 | below the threshold | below the threshold | 4.58 | pKd (DLG2_3, Q15700): 4.93; pKd (ARHGEF11, O15085): 4.71; pKd (SYNJ2BP, P57105): 4.82; pKd (GRIP2_6, Q9C0E4): below the threshold; pKd (GRIP1_2, Q9Y3R0): below the threshold; pKd (MAGI1_1, Q96QZ7): below the threshold |
| LEPAVRSSEL [SH2D3C, Q8N5H7] | 3.9 | below the threshold | 3.66 | below the threshold | below the threshold | below the threshold | below the threshold | below the threshold | below the threshold | below the threshold | below the threshold | below the threshold | below the threshold | below the threshold | below the threshold | 4.91 | below the threshold | 5.33 | below the threshold | below the threshold | pKd (DLG2_3, Q15700): below the threshold; pKd (ARHGEF11, O15085): 4.18; pKd (SYNJ2BP, P57105): 4.44; pKd (GRIP2_6, Q9C0E4): below the threshold; pKd (GRIP1_2, Q9Y3R0): below the threshold; pKd (MAGI1_1, Q96QZ7): below the threshold |
| GQSVDLVFPV [AKIP1, Q9NQ31] | below the threshold | below the threshold | below the threshold | below the threshold | below the threshold | 4.15 | 3.97 | below the threshold | below the threshold | below the threshold | 3.51 | below the threshold | 3.59 | below the threshold | below the threshold | below the threshold | below the threshold | below the threshold | below the threshold | 3.75 | pKd (DLG2_3, Q15700): below the threshold; pKd (ARHGEF11, O15085): 4.09; pKd (SYNJ2BP, P57105): below the threshold; pKd (GRIP2_6, Q9C0E4): below the threshold; pKd (GRIP1_2, Q9Y3R0): below the threshold; pKd (MAGI1_1, Q96QZ7): below the threshold |
| DQPLEKSTKL [AKAP10, O43572] | 3.92 | 4.79 | 3.96 | below the threshold | below the threshold | below the threshold | below the threshold | below the threshold | below the threshold | below the threshold | below the threshold | below the threshold | below the threshold | below the threshold | below the threshold | 4.97 | below the threshold | 6.02 | below the threshold | below the threshold | pKd (DLG2_3, Q15700): 3.83; pKd (ARHGEF11, O15085): 4.2; pKd (SYNJ2BP, P57105): below the threshold; pKd (GRIP2_6, Q9C0E4): below the threshold; pKd (GRIP1_2, Q9Y3R0): below the threshold; pKd (MAGI1_1, Q96QZ7): below the threshold |
